Like-named read-outs stand apart in the source and are kept apart here.
How the values were obtained:
Assay in all cases: MST
[1] = target: Luminal domain of human IRE1α (inositol-requiring enzyme 1α), His-tagged (human) (UniProt O75460)
[2] = target: Luminal domain of human ATF6 (activating transcription factor 6), His-tagged (human) (UniProt P18850)
[3] = target: Luminal domain of human PERK (PKR-like endoplasmic reticulum kinase), His-tagged (human) (UniProt Q9NZJ5)
MST [4] = target: the molecule itself
[5] = target: Human recombinant GRP78 (BiP, binding immunoglobulin protein) (human, UniProt P11021 19-654)
MST [6] = target: the molecule itself; remark: listed apart in the source
MST [7] = target: the molecule itself; remark: listed apart in the source

Human recombinant GRP78 (BiP, binding immunoglobulin protein), sequence (P11021 19-654): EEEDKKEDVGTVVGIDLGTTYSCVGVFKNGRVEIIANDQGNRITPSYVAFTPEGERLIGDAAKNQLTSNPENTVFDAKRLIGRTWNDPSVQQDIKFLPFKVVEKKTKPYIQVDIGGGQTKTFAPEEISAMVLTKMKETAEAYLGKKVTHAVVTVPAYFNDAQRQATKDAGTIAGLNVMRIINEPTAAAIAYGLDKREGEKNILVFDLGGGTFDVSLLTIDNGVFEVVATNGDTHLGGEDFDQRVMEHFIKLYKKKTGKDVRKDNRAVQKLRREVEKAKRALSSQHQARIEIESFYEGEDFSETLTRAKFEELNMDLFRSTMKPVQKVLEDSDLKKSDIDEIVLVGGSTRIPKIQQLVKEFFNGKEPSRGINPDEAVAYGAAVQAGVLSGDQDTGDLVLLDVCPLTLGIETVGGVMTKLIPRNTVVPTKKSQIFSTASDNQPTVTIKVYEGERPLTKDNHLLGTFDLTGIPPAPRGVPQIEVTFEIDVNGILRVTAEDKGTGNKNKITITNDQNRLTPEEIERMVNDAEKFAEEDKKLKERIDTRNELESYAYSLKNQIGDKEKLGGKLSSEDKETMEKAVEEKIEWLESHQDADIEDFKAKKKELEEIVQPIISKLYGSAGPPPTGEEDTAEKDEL

C-terminal domain of human MANF (C-MANF), E.coli produced (domain or fragment)
Kd [1]: 241 nM
Kd [2]: 1300 nM
Kd [3]: 1400 nM

Mesencephalic astrocyte-derived neurotrophic factor (MANF), recombinant human (from UniProt P55145 25-182) (natural protein)
Kd [1]: 94.7 nM
Kd [2]: 347 nM
Kd [3]: 384 nM

MANF K128A C130S, recombinant human mutant protein (from UniProt P55145 25-182) (natural protein)
Kd [1]: 55 nM

C-terminal domain of human MANF (C-MANF), chemically synthesized (domain or fragment)
Kd [1]: 9.5 nM
Kd [2]: 9.8 nM
Kd [3]: 7.6 nM

B1: Luminal domain of human IRE1α (inositol-requiring enzyme 1α), His-tagged (domain or fragment, UniProt O75460 19-443, looked up)
chain: IFGSTSTVTLPETLLFVSTLDGSLHAVSKRTGSIKWTLKEDPVLQVPTHVEEPAFLPDPNDGSLYTLGSKNNEGLTKLPFTIPELVQASPCRSSDGILYMGKKQDIWYVIDLLTGEKQQTLSSAFADSLCPSTSLLYLGRTEYTITMYDTKTRELRWNATYFDYAASLPEDDVDYKMSHFVSNGDGLVVTVDSESGDVLWIQNYASPVVAFYVWQREGLRKVMHINVAVETLRYLTFMSGEVGRITKWKYPFPKETEAKSKLTPTLYVGKYSTSLYASPSMVHEGVAVVPRGSTLPLLEGPQTDGVTIGDKGECVITPSTDVKFDPGLKSKNKLNYLRNYWLLIGHHETPLSASTKMLERFPNNLPKHRENVIPADSEKKSFEEVINLVDQTSENAPTTVSRDVEEKPAHAPARPEAPVDSMLKD
modifications: labelled copy: Monolith His-Tag Labeling Kit RED-tris-NTA dye on the His-tag (legends also say Alexa647-labeled through His-tag)
Kd (MST [4]): 2.7 nM
Kd [5]: 119 nM
Kd (MST [6]): 7.3 nM
Kd (MST [7]): 40 nM

B2: Luminal domain of human PERK (PKR-like endoplasmic reticulum kinase), His-tagged (domain or fragment, UniProt Q9NZJ5 30-514, looked up)
chain: AGRARGLPAPTAEAAFGLGAAAAPTSATRVPAAGAVAAAEVTVEDAEALPAAAGEQEPRGPEPDDETELRPRGRSLVIISTLDGRIAALDPENHGKKQWDLDVGSGSLVSSSLSKPEVFGNKMIIPSLDGALFQWDQDRESMETVPFTVESLLESSYKFGDDVVLVGGKSLTTYGLSAYSGKVRYICSALGCRQWDSDEMEQEEDILLLQRTQKTVRAVGPRSGNEKWNFSVGHFELRYIPDMETRAGFIESTFKPNENTEESKIISDVEEQEAAIMDIVIKVSVADWKVMAFSKKGGHLEWEYQFCTPIASAWLLKDGKVIPISLFDDTSYTSNDDVLEDEEDIVEAARGATENSVYLGMYRGQLYLQSSVRISEKFPSSPKALESVTNENAIIPLPTIKWKPLIHSPSRTPVLVGSDEFDKCLSNDKFSHEEYSNGALSILQYPYDNGYYLPYYKRERNKRSTQITVRFLDNPHYNKNIRKKD
modifications: Monolith His-Tag Labeling Kit RED-tris-NTA dye on the His-tag
Kd [5]: 14.1 nM

B3: Luminal domain of human ATF6 (activating transcription factor 6), His-tagged (domain or fragment, UniProt P18850 399-670, looked up)
chain: EQDSRRMNPSVSPANQRRHLLGFSAKEAQDTSDGIIQKNSYRYDHSVSNDKALMVLTEEPLLYIPPPPCQPLINTTESLRLNHELRGWVHRHEVERTKSRRMTNNQQKTRILQGALEQGSNSQLMAVQYTETTSSISRNSGSELQVYYASPRSYQDFFEAIRRRGDTFYVVSFRRDHLLLPATTHNKTTRPKMSIVLPAININENVINGQDYEVMMQIDCQVMDTRILHIKSSSVPPYLRDQQRNQTNTFFGSPPAATEATHVVSTIPESLQ
modifications: glycosylated (PNGase F assay); Monolith His-Tag Labeling Kit RED-tris-NTA dye on the His-tag
Kd [5]: 21 nM
